Source: patent publication US12679878B2, “CRF2 receptor agonists and their use in therapy” (SANOFI, priority 2020, dated 2026)
Starred links: 1 amine or outer side, 2 acyl side, 3 side chain; linkers in the order of their positions; H or OH if unused. Non-standard residues stand in square brackets, D forms with d. Groups on a side chain read outwards from the residue. No end group written: not given here. *: point of attachment. C20 diacid = O=C(O)CCCCCCCCCCCCCCCCCCC(=O)*; C18 diacid = O=C(O)CCCCCCCCCCCCCCCCC(=O)*; γGlu = O=C(O)[C@H](CCC(=O)[*:2])N[*:1]; AEEA = NCCOCCOCC(=O)O; Aib = CC(C)(N)C(=O)O

B1: peptide of SEQ ID NO: 157 (peptide)
peptide: Ac-IVLSLD[dV]PIKLK([AEEA-AEEA-γGlu-C18 diacid])QILLEQARQK[Aib]QREQAEKNKQILEQV-NH2
SMILES: CC[C@H](C)[C@H](NC(C)=O)C(=O)N[C@H](C(=O)N[C@@H](CC(C)C)C(=O)N[C@@H](CO)C(=O)N[C@@H](CC(C)C)C(=O)N[C@@H](CC(=O)O)C(=O)N[C@@H](C(=O)N1CCC[C@H]1C(=O)N[C@H](C(=O)N[C@@H](CCCCN)C(=O)N[C@@H](CC(C)C)C(=O)N[C@@H](CCCCNC(=O)COCCOCCNC(=O)COCCOCCNC(=O)CC[C@H](NC(=O)CCCCCCCCCCCCCCCCC(=O)O)C(=O)O)C(=O)N[C@@H](CCC(N)=O)C(=O)N[C@H](C(=O)N[C@@H](CC(C)C)C(=O)N[C@@H](CC(C)C)C(=O)N[C@@H](CCC(=O)O)C(=O)N[C@@H](CCC(N)=O)C(=O)N[C@@H](C)C(=O)N[C@@H](CCCNC(=N)N)C(=O)N[C@@H](CCC(N)=O)C(=O)N[C@@H](CCCCN)C(=O)NC(C)(C)C(=O)N[C@@H](CCC(N)=O)C(=O)N[C@@H](CCCNC(=N)N)C(=O)N[C@@H](CCC(=O)O)C(=O)N[C@@H](CCC(N)=O)C(=O)N[C@@H](C)C(=O)N[C@@H](CCC(=O)O)C(=O)N[C@@H](CCCCN)C(=O)N[C@@H](CC(N)=O)C(=O)N[C@@H](CCCCN)C(=O)N[C@@H](CCC(N)=O)C(=O)N[C@H](C(=O)N[C@@H](CC(C)C)C(=O)N[C@@H](CCC(=O)O)C(=O)N[C@@H](CCC(N)=O)C(=O)N[C@H](C(N)=O)C(C)C)[C@@H](C)CC)[C@@H](C)CC)[C@@H](C)CC)C(C)C)C(C)C
B2: peptide of SEQ ID NO: 173 (peptide)
peptide: IVLSLD[dV]PIKLK([AEEA-AEEA-γGlu-C20 diacid])QILLKQERQK[Aib]QREQAEKNKQILAQV-NH2
modifications: N-terminus assumed
SMILES: CC[C@H](C)[C@H](N)C(=O)N[C@H](C(=O)N[C@@H](CC(C)C)C(=O)N[C@@H](CO)C(=O)N[C@@H](CC(C)C)C(=O)N[C@@H](CC(=O)O)C(=O)N[C@@H](C(=O)N1CCC[C@H]1C(=O)N[C@H](C(=O)N[C@@H](CCCCN)C(=O)N[C@@H](CC(C)C)C(=O)N[C@@H](CCCCNC(=O)COCCOCCNC(=O)COCCOCCNC(=O)CC[C@H](NC(=O)CCCCCCCCCCCCCCCCCCC(=O)O)C(=O)O)C(=O)N[C@@H](CCC(N)=O)C(=O)N[C@H](C(=O)N[C@@H](CC(C)C)C(=O)N[C@@H](CC(C)C)C(=O)N[C@@H](CCCCN)C(=O)N[C@@H](CCC(N)=O)C(=O)N[C@@H](CCC(=O)O)C(=O)N[C@@H](CCCNC(=N)N)C(=O)N[C@@H](CCC(N)=O)C(=O)N[C@@H](CCCCN)C(=O)NC(C)(C)C(=O)N[C@@H](CCC(N)=O)C(=O)N[C@@H](CCCNC(=N)N)C(=O)N[C@@H](CCC(=O)O)C(=O)N[C@@H](CCC(N)=O)C(=O)N[C@@H](C)C(=O)N[C@@H](CCC(=O)O)C(=O)N[C@@H](CCCCN)C(=O)N[C@@H](CC(N)=O)C(=O)N[C@@H](CCCCN)C(=O)N[C@@H](CCC(N)=O)C(=O)N[C@H](C(=O)N[C@@H](CC(C)C)C(=O)N[C@@H](C)C(=O)N[C@@H](CCC(N)=O)C(=O)N[C@H](C(N)=O)C(C)C)[C@@H](C)CC)[C@@H](C)CC)[C@@H](C)CC)C(C)C)C(C)C
B3: peptide of SEQ ID NO: 159 (peptide)
peptide: Ac-IVLSLD[dV]PIKLK([AEEA-AEEA-γGlu-C18 diacid])QILLEQERQE[Aib]QREQAEKNKQILEQV-NH2
SMILES: CC[C@H](C)[C@H](NC(C)=O)C(=O)N[C@H](C(=O)N[C@@H](CC(C)C)C(=O)N[C@@H](CO)C(=O)N[C@@H](CC(C)C)C(=O)N[C@@H](CC(=O)O)C(=O)N[C@@H](C(=O)N1CCC[C@H]1C(=O)N[C@H](C(=O)N[C@@H](CCCCN)C(=O)N[C@@H](CC(C)C)C(=O)N[C@@H](CCCCNC(=O)COCCOCCNC(=O)COCCOCCNC(=O)CC[C@H](NC(=O)CCCCCCCCCCCCCCCCC(=O)O)C(=O)O)C(=O)N[C@@H](CCC(N)=O)C(=O)N[C@H](C(=O)N[C@@H](CC(C)C)C(=O)N[C@@H](CC(C)C)C(=O)N[C@@H](CCC(=O)O)C(=O)N[C@@H](CCC(N)=O)C(=O)N[C@@H](CCC(=O)O)C(=O)N[C@@H](CCCNC(=N)N)C(=O)N[C@@H](CCC(N)=O)C(=O)N[C@@H](CCC(=O)O)C(=O)NC(C)(C)C(=O)N[C@@H](CCC(N)=O)C(=O)N[C@@H](CCCNC(=N)N)C(=O)N[C@@H](CCC(=O)O)C(=O)N[C@@H](CCC(N)=O)C(=O)N[C@@H](C)C(=O)N[C@@H](CCC(=O)O)C(=O)N[C@@H](CCCCN)C(=O)N[C@@H](CC(N)=O)C(=O)N[C@@H](CCCCN)C(=O)N[C@@H](CCC(N)=O)C(=O)N[C@H](C(=O)N[C@@H](CC(C)C)C(=O)N[C@@H](CCC(=O)O)C(=O)N[C@@H](CCC(N)=O)C(=O)N[C@H](C(N)=O)C(C)C)[C@@H](C)CC)[C@@H](C)CC)[C@@H](C)CC)C(C)C)C(C)C
B4: peptide of SEQ ID NO: 142 (peptide)
peptide: IVLSLD[dV]PIKLK([AEEA-AEEA-γGlu-C18 diacid])QILLEQARQK[Aib]QREQAEKNKRILERV-NH2
modifications: N-terminus assumed
SMILES: CC[C@H](C)[C@H](N)C(=O)N[C@H](C(=O)N[C@@H](CC(C)C)C(=O)N[C@@H](CO)C(=O)N[C@@H](CC(C)C)C(=O)N[C@@H](CC(=O)O)C(=O)N[C@@H](C(=O)N1CCC[C@H]1C(=O)N[C@H](C(=O)N[C@@H](CCCCN)C(=O)N[C@@H](CC(C)C)C(=O)N[C@@H](CCCCNC(=O)COCCOCCNC(=O)COCCOCCNC(=O)CC[C@H](NC(=O)CCCCCCCCCCCCCCCCC(=O)O)C(=O)O)C(=O)N[C@@H](CCC(N)=O)C(=O)N[C@H](C(=O)N[C@@H](CC(C)C)C(=O)N[C@@H](CC(C)C)C(=O)N[C@@H](CCC(=O)O)C(=O)N[C@@H](CCC(N)=O)C(=O)N[C@@H](C)C(=O)N[C@@H](CCCNC(=N)N)C(=O)N[C@@H](CCC(N)=O)C(=O)N[C@@H](CCCCN)C(=O)NC(C)(C)C(=O)N[C@@H](CCC(N)=O)C(=O)N[C@@H](CCCNC(=N)N)C(=O)N[C@@H](CCC(=O)O)C(=O)N[C@@H](CCC(N)=O)C(=O)N[C@@H](C)C(=O)N[C@@H](CCC(=O)O)C(=O)N[C@@H](CCCCN)C(=O)N[C@@H](CC(N)=O)C(=O)N[C@@H](CCCCN)C(=O)N[C@@H](CCCNC(=N)N)C(=O)N[C@H](C(=O)N[C@@H](CC(C)C)C(=O)N[C@@H](CCC(=O)O)C(=O)N[C@@H](CCCNC(=N)N)C(=O)N[C@H](C(N)=O)C(C)C)[C@@H](C)CC)[C@@H](C)CC)[C@@H](C)CC)C(C)C)C(C)C
B5: peptide of SEQ ID NO: 162 (peptide)
peptide: Ac-IVLSLD[dV]PIELK([AEEA-AEEA-γGlu-C18 diacid])QILLEQERQK[Aib]QREQAEKNKQILEQV-NH2
SMILES: CC[C@H](C)[C@H](NC(C)=O)C(=O)N[C@H](C(=O)N[C@@H](CC(C)C)C(=O)N[C@@H](CO)C(=O)N[C@@H](CC(C)C)C(=O)N[C@@H](CC(=O)O)C(=O)N[C@@H](C(=O)N1CCC[C@H]1C(=O)N[C@H](C(=O)N[C@@H](CCC(=O)O)C(=O)N[C@@H](CC(C)C)C(=O)N[C@@H](CCCCNC(=O)COCCOCCNC(=O)COCCOCCNC(=O)CC[C@H](NC(=O)CCCCCCCCCCCCCCCCC(=O)O)C(=O)O)C(=O)N[C@@H](CCC(N)=O)C(=O)N[C@H](C(=O)N[C@@H](CC(C)C)C(=O)N[C@@H](CC(C)C)C(=O)N[C@@H](CCC(=O)O)C(=O)N[C@@H](CCC(N)=O)C(=O)N[C@@H](CCC(=O)O)C(=O)N[C@@H](CCCNC(=N)N)C(=O)N[C@@H](CCC(N)=O)C(=O)N[C@@H](CCCCN)C(=O)NC(C)(C)C(=O)N[C@@H](CCC(N)=O)C(=O)N[C@@H](CCCNC(=N)N)C(=O)N[C@@H](CCC(=O)O)C(=O)N[C@@H](CCC(N)=O)C(=O)N[C@@H](C)C(=O)N[C@@H](CCC(=O)O)C(=O)N[C@@H](CCCCN)C(=O)N[C@@H](CC(N)=O)C(=O)N[C@@H](CCCCN)C(=O)N[C@@H](CCC(N)=O)C(=O)N[C@H](C(=O)N[C@@H](CC(C)C)C(=O)N[C@@H](CCC(=O)O)C(=O)N[C@@H](CCC(N)=O)C(=O)N[C@H](C(N)=O)C(C)C)[C@@H](C)CC)[C@@H](C)CC)[C@@H](C)CC)C(C)C)C(C)C
B6: peptide of SEQ ID NO: 158 (peptide)
peptide: Ac-IVLSLD[dV]PIKLK([AEEA-AEEA-γGlu-C18 diacid])QILLEQERQK[Aib]QREQAEKNKQILEQV-NH2
SMILES: CC[C@H](C)[C@H](NC(C)=O)C(=O)N[C@H](C(=O)N[C@@H](CC(C)C)C(=O)N[C@@H](CO)C(=O)N[C@@H](CC(C)C)C(=O)N[C@@H](CC(=O)O)C(=O)N[C@@H](C(=O)N1CCC[C@H]1C(=O)N[C@H](C(=O)N[C@@H](CCCCN)C(=O)N[C@@H](CC(C)C)C(=O)N[C@@H](CCCCNC(=O)COCCOCCNC(=O)COCCOCCNC(=O)CC[C@H](NC(=O)CCCCCCCCCCCCCCCCC(=O)O)C(=O)O)C(=O)N[C@@H](CCC(N)=O)C(=O)N[C@H](C(=O)N[C@@H](CC(C)C)C(=O)N[C@@H](CC(C)C)C(=O)N[C@@H](CCC(=O)O)C(=O)N[C@@H](CCC(N)=O)C(=O)N[C@@H](CCC(=O)O)C(=O)N[C@@H](CCCNC(=N)N)C(=O)N[C@@H](CCC(N)=O)C(=O)N[C@@H](CCCCN)C(=O)NC(C)(C)C(=O)N[C@@H](CCC(N)=O)C(=O)N[C@@H](CCCNC(=N)N)C(=O)N[C@@H](CCC(=O)O)C(=O)N[C@@H](CCC(N)=O)C(=O)N[C@@H](C)C(=O)N[C@@H](CCC(=O)O)C(=O)N[C@@H](CCCCN)C(=O)N[C@@H](CC(N)=O)C(=O)N[C@@H](CCCCN)C(=O)N[C@@H](CCC(N)=O)C(=O)N[C@H](C(=O)N[C@@H](CC(C)C)C(=O)N[C@@H](CCC(=O)O)C(=O)N[C@@H](CCC(N)=O)C(=O)N[C@H](C(N)=O)C(C)C)[C@@H](C)CC)[C@@H](C)CC)[C@@H](C)CC)C(C)C)C(C)C

The binders below were run against rat CRF2R α receptor (rat, UniProt P47866 20-411) (assay: cell-based or functional assay).
Chain of rat CRF2R α receptor (P47866 20-411): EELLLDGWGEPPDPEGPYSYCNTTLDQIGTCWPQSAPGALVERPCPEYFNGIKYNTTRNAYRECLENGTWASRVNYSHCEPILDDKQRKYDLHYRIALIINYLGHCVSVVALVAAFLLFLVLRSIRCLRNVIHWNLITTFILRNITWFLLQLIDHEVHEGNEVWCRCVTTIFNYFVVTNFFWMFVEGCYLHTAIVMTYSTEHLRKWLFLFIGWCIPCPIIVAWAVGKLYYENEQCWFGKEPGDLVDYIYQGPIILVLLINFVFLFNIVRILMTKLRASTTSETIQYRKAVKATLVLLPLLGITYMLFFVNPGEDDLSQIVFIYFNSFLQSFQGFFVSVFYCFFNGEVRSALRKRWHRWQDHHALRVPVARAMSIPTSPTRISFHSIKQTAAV

EC50 [nM], 0% HSA (cAMP, A7R5 cells) [nM]	Binder
1.14	B1
0.83	B2
15.6	B3
1.5	Ac-IVLSLD[dV]PIHLK([AEEA-AEEA-γGlu-C18 diacid])QILLEQERQK[Aib]QREQAEKNKQILEQV-NH2 [peptide of SEQ ID NO: 163]
0.2	B4
48.6	B5
5.29	B6
